Assay results as given in patent US20250179200A1 (UNIVERSITY OF CHICAGO, published 2025).

Experiments:
[1] = molecular target: T1, Growth Hormone Receptor (GHR) immobilized on a high binding plate (UniProt P10912 19-264, limits assumed); assay: competition ELISA: Fab titrated on plate-bound GHR preincubated with 200 nM GH (the legend of 6A names B2036), anti-human Fab-HRP
T1 sequence (looked up): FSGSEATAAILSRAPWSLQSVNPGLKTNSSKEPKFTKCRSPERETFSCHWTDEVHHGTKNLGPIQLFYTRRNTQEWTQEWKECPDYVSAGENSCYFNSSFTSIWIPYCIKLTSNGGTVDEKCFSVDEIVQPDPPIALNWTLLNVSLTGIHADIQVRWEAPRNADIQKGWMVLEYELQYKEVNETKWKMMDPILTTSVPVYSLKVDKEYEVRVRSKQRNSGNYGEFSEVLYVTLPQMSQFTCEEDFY
Protocol: 200 nM of GHR was immobilized on a 96-well high binding plate (Geiner Bio) and blocked with 5% BSA overnight. […] The Fab binding to GHR was detected using HRP-conjugated anti-human (Fab)2 antibody (Jackson ImmunoResearch, 1:5000 dilution in PBST), and the signal was developed with TMB substrate.

[2] = molecular target: T2, Human GHR-Fc-10x His (extracellular region of human growth hormone receptor fused to human Fc) (human, UniProt P10912 50-256); assay: SPR, GHR-Fc-10xHis captured on Ni-NTA chip, Fab as analyte, 1:1 fit
T2 construct: Captured by its 10x His-tag on a Ni-NTA sensor chip for SPR; not shown: human Fc domain of vector pAB1200 with its linker; 10x His-tag replacing the AviTag
T2 sequence (looked up): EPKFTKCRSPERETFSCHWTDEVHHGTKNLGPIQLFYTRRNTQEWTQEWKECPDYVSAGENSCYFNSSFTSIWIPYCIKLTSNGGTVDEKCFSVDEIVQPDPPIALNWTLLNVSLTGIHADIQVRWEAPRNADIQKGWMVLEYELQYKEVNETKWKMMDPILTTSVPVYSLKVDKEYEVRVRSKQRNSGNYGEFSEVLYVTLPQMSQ
Protocol: Surface plasmon resonance (SPR) measurements were conducted in a MASS-1 (Bruker) instrument. The target GHR-Fc (50 nM) with a 10× His-tag was captured in a Ni-NTA sensor chip. […] Flow rate was 30 ul/min and temperature 20° C. Sensograms were corrected through double referencing and fitting was done with a 1:1 binding model using the Sierra Analyzer (Bruker). For epitope binning experiments, the first FAB was injected at saturating concentrations (200 nM), followed by injection a second FAB in equal molar mixture with the first FAB, and the response unit (RU) was recorded.
Target GHR_Fc (from different species) were immobilized via a 10× His-tag to a Ni-NTA sensor chip. […] Sensograms were corrected through double referencing and 1:1 binding model fit was done using Sierra Analyzer (Bruker). To reveal different epitopes on GHR, the epitope binning experiment was performed.

B1: GHR3 Fab (Fab, V domains shown)
VH: EVQLVESGGGLVQPGGSLRLSCAASGFNVSYYSIHWVRQAPGKGLEWVAYISPSYGSTSYADSVKGRFTISADTSKNTAYLQMNSLRAEDTAVYYCARGYWGGGYWPYHAFDYWGQGTLVTVSS
VL: DIQMTQSPSSLSASVGDRVTITCRASQSVSSAVAWYQQKPGKAPKLLIYSASSLYSGVPSRFSGSRSGTDFTLTISSLQPEDFATYYCQQYYTSLLTFGQGTKVEIKR
- EC50 [1]: 26 nM

B2: GHR8 Fab (Fab, V domains shown)
VH: EVQLVESGGGLVQPGGSLRLSCAASGFNISYSSIHWVRQAPGKGLEWVASIYSSYGSTYYADSVKGRFTISADTSKNTAYLQMNSLRAEDTAVYYCARSYIYSQPGFYYDSYALDYWGQGTLVTVSS
VL: DIQMTQSPSSLSASVGDRVTITCRASQSVSSAVAWYQQKPGKAPKLLIYSASSLYSGVPSRFSGSRSGTDFTLTISSLQPEDFATYYCQQYGSWLITFGQGTKVEIKR
notes: Fab
- Kd [2]: 3.23 nM
- koff [2]: 0.000505 s⁻¹
- kon [2]: 156000 M⁻¹ s⁻¹

B3: GHR13 Fab (Fab, V domains shown)
VH: EVQLVESGGGLVQPGGSLRLSCAASGFNVYYSSIHWVRQAPGKGLEWVAYIYPSSGSTSYADSVKGRFTISADTSKNTAYLQMNSLRAEDTAVYYCARSWQWYYPGWEQYGWYGMDYWGQGTLVTVSS
VL: DIQMTQSPSSLSASVGDRVTITCRASQSVSSAVAWYQQKPGKAPKLLIYSASSLYSGVPSRFSGSRSGTDFTLTISSLQPEDFATYYCQQSGGSLVTFGQGTKVEIKR
notes: Fab
- Kd [2]: 2.84 nM
- koff [2]: 0.00053 s⁻¹
- kon [2]: 187000 M⁻¹ s⁻¹

B4: GHR4 Fab (Fab, V domains shown)
VH: EVQLVESGGGLVQPGGSLRLSCAASGFNVYYSYIHWVRQAPGKGLEWVAYISPYSGSTSYADSVKGRFTISADTSKNTAYLQMNSLRAEDTAVYYCARQEWYAFDYWGQGTLVTVSS
VL: DIQMTQSPSSLSASVGDRVTITCRASQSVSSAVAWYQQKPGKAPKLLIYSASSLYSGVPSRFSGSRSGTDFTLTISSLQPEDFATYYCQQYWSYLITFGQGTKVEIKR
notes: Fab; also called FAB4
- Kd [2]: 1.9 nM
- koff [2]: 0.000992 s⁻¹
- kon [2]: 522000 M⁻¹ s⁻¹

B5: GHR7 Fab (Fab, V domains shown)
VH: EVQLVESGGGLVQPGGSLRLSCAASGFNFSYSSIHWVRQAPGKGLEWVAYISSYYGYTSYADSVKGRFTISADTSKNTAYLQMNSLRAEDTAVYYCARLQHPSWYYYQGYHSGMDYWGQGTLVTVSS
VL: DIQMTQSPSSLSASVGDRVTITCRASQSVSSAVAWYQQKPGKAPKLLIYSASSLYSGVPSRFSGSRSGTDFTLTISSLQPEDFATYYCQQYWSSLITFGQGTKVEIKR
notes: Fab
- Kd [2]: 2.21 nM
- koff [2]: 0.00129 s⁻¹
- kon [2]: 587000 M⁻¹ s⁻¹

B6: GHR1 Fab (Fab, V domains shown)
VH: EVQLVESGGGLVQPGGSLRLSCAASGFNVSYSSIHWVRQAPGKGLEWVAYIYSSYGSTYYADSVKGRFTISADTSKNTAYLQMNSLRAEDTAVYYCAREYWPYYSQTGGSAMDYWGQGTLVTVSS
VL: DIQMTQSPSSLSASVGDRVTITCRASQSVSSAVAWYQQKPGKAPKLLIYSASSLYSGVPSRFSGSRSGTDFTLTISSLQPEDFATYYCQQSMHPLITFGQGTKVEIKR
notes: Synthetic human Fab from phage display, expressed in E. coli
- Kd [2]: 6.29 nM
- koff [2]: 0.000336 s⁻¹
- kon [2]: 53400 M⁻¹ s⁻¹

B7: GHR3 Fab (Fab, V domains shown)
VH: EVQLVESGGGLVQPGGSLRLSCAASGFNVSYYSIHWVRQAPGKGLEWVAYISPSYGSTSYADSVKGRFTISADTSKNTAYLQMNSLRAEDTAVYYCARGYWGGGYWPYHAFDYWGQGTLVTVSS
VL: DIQMTQSPSSLSASVGDRVTITCRASQSVSSAVAWYQQKPGKAPKLLIYSASSLYSGVPSRFSGSRSGTDFTLTISSLQPEDFATYYCQQYYTSLLTFGQGTKVEIKR
notes: Fab
- Kd [2]: < 1 nM
- koff [2]: 1.32e-06 s⁻¹
- kon [2]: 405000 M⁻¹ s⁻¹

B8: GHR12 Fab (Fab, V domains shown)
VH: EVQLVESGGGLVQPGGSLRLSCAASGFNVSYYSIHWVRQAPGKGLEWVASIYSSYGSTYYADSVKGRFTISADTSKNTAYLQMNSLRAEDTAVYYCARGYWQGGYYRWGNGGLDYWGQGTLVTVSS
VL: DIQMTQSPSSLSASVGDRVTITCRASQSVSSAVAWYQQKPGKAPKLLIYSASSLYSGVPSRFSGSRSGTDFTLTISSLQPEDFATYYCQQSYGWLITFGQGTKVEIKR
notes: Fab
- Kd [2]: < 1 nM
- koff [2]: 0.000168 s⁻¹
- kon [2]: 536000 M⁻¹ s⁻¹

B9: GHR2 Fab (Fab, V domains shown)
VH: EVQLVESGGGLVQPGGSLRLSCAASGFNLYYSSIHWVRQAPGKGLEWVAYISPSYGSTSYADSVKGRFTISADTSKNTAYLQMNSLRAEDTAVYYCARYYDYSWPWYWHGGGPAFDYWGQGTLVTVSS
VL: DIQMTQSPSSLSASVGDRVTITCRASQSVSSAVAWYQQKPGKAPKLLIYSASSLYSGVPSRFSGSRSGTDFTLTISSLQPEDFATYYCQQYEEYPLITFGQGTKVEIKR
notes: Fab
- Kd [2]: 16.8 nM
- koff [2]: 0.000873 s⁻¹
- kon [2]: 51200 M⁻¹ s⁻¹

B10: GHR6 Fab (Fab, V domains shown)
VH: EVQLVESGGGLVQPGGSLRLSCAASGFNVYYSSIHWVRQAPGKGLEWVASIYSSYGYTSYADSVKGRFTISADTSKNTAYLQMNSLRAEDTAVYYCARGQWSGLSGYWEYKALDYWGQGTLVTVSS
VL: DIQMTQSPSSLSASVGDRVTITCRASQSVSSAVAWYQQKPGKAPKLLIYSASSLYSGVPSRFSGSRSGTDFTLTISSLQPEDFATYYCQQVGGSSLITFGQGTKVEIKR
notes: Fab
- Kd [2]: 1.89 nM
- koff [2]: 0.000296 s⁻¹
- kon [2]: 156000 M⁻¹ s⁻¹

B11: GHR9 Fab (Fab, V domains shown)
VH: EVQLVESGGGLVQPGGSLRLSCAASGFNVSYSSIHWVRQAPGKGLEWVASISSSYGSTYYADSVKGRFTISADTSKNTAYLQMNSLRAEDTAVYYCARYYDYSWSTYKGIGTGAIDYWGQGTLVTVSS
VL: DIQMTQSPSSLSASVGDRVTITCRASQSVSSAVAWYQQKPGKAPKLLIYSASSLYSGVPSRFSGSRSGTDFTLTISSLQPEDFATYYCQQYWYSYLITFGQGTKVEIKR
notes: Fab
- Kd [2]: < 1 nM
- koff [2]: 0.00012 s⁻¹
- kon [2]: 238000 M⁻¹ s⁻¹

B12: GHR5 Fab (Fab, V domains shown)
VH: EVQLVESGGGLVQPGGSLRLSCAASGFNVSYYSIHWVRQAPGKGLEWVAYISPSSGSTSYADSVKGRFTISADTSKNTAYLQMNSLRAEDTAVYYCARMYWQGGYSSYWQSYAMDYWGQGTLVTVSS
VL: DIQMTQSPSSLSASVGDRVTITCRASQSVSSAVAWYQQKPGKAPKLLIYSASSLYSGVPSRFSGSRSGTDFTLTISSLQPEDFATYYCQQKSQYSLVTFGQGTKVEIKR
notes: Fab
- Kd [2]: 15.5 nM
- koff [2]: 0.00211 s⁻¹
- kon [2]: 136000 M⁻¹ s⁻¹

B13: GHR15 Fab (Fab, V domains shown)
VH: EVQLVESGGGLVQPGGSLRLSCAASGFNVSSSSIHWVRQAPGKGLEWVASIYSYYGYTSYADSVKGRFTISADTSKNTAYLQMNSLRAEDTAVYYCARSSGYHGWYWNGMDYWGQGTLVTVSS
VL: DIQMTQSPSSLSASVGDRVTITCRASQSVSSAVAWYQQKPGKAPKLLIYSASSLYSGVPSRFSGSRSGTDFTLTISSLQPEDFATYYCQQWYGMSLVTFGQGTKVEIKR
notes: Fab
- Kd [2]: < 1 nM
- koff [2]: 0.000131 s⁻¹
- kon [2]: 170000 M⁻¹ s⁻¹

B14: GHR10 Fab (Fab, V domains shown)
VH: EVQLVESGGGLVQPGGSLRLSCAASGFNFSYYSIHWVRQAPGKGLEWVASISSYYGSTSYADSVKGRFTISADTSKNTAYLQMNSLRAEDTAVYYCARTEYSFGMYWAHTGMDYWGQGTLVTVSS
VL: DIQMTQSPSSLSASVGDRVTITCRASQSVSSAVAWYQQKPGKAPKLLIYSASSLYSGVPSRFSGSRSGTDFTLTISSLQPEDFATYYCQQFWSSEPITFGQGTKVEIKR
notes: Fab
- Kd [2]: 1.51 nM
- koff [2]: 0.000642 s⁻¹
- kon [2]: 425000 M⁻¹ s⁻¹

B15: GHR14 Fab (Fab, V domains shown)
VH: EVQLVESGGGLVQPGGSLRLSCAASGFNISSSYIHWVRQAPGKGLEWVASISSYYGYTSYADSVKGRFTISADTSKNTAYLQMNSLRAEDTAVYYCARSYGSYYGYYHYWEWYGLDYWGQGTLVTVSS
VL: DIQMTQSPSSLSASVGDRVTITCRASQSVSSAVAWYQQKPGKAPKLLIYSASSLYSGVPSRFSGSRSGTDFTLTISSLQPEDFATYYCQQWQYWSPVTFGQGTKVEIKR
notes: Fab
- Kd [2]: 7.15 nM
- koff [2]: 0.00127 s⁻¹
- kon [2]: 177000 M⁻¹ s⁻¹

B16: GHR11 Fab (Fab, V domains shown)
VH: EVQLVESGGGLVQPGGSLRLSCAASGFNLSYYYIHWVRQAPGKGLEWVASIYSSSGYTYYADSVKGRFTISADTSKNTAYLQMNSLRAEDTAVYYCARQYPYSWSSYGFSSGALDYWGQGTLVTVSS
VL: DIQMTQSPSSLSASVGDRVTITCRASQSVSSAVAWYQQKPGKAPKLLIYSASSLYSGVPSRFSGSRSGTDFTLTISSLQPEDFATYYCQQYFAYYSPITFGQGTKVEIKR
notes: Fab
- Kd [2]: 1.3 nM
- koff [2]: 0.000587 s⁻¹
- kon [2]: 451000 M⁻¹ s⁻¹
